Source: the RNAGym collection of RNA variant scans (doi:10.1073/pnas.2313332121)

B1: TPR t1 (parent)
chain: GACCAAUCUGCCCUCAGAGCUCGAGAACAUCUUCGGAUGCAGAGGAGGCAGGCUUCGGUGGCGCGAUAGCGCCAACGUCCUCAACCUCCAAUGCAUCCCACCACAUGAUGAUGCCUGAAGAGCCUUGGUUUUUUG

Variants of: B1
Assay: polymerase ribozyme fitness, log enrichment relative to wild type (log ratio); higher = more active; in vitro selection for triplet polymerase activity
Method in brief: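 Streptavidin-bead capture of gel-excised extended constructs, followed by RT-PCR, closed a single triplicate in vitro selection round. That round began by annealing PCR-built, transcribed mutant libraries of each subunit of a heterodimeric triplet polymerase ribozyme with a biotinylated primer, the partner subunit and triplets, then incubating them frozen at −7 °C. After Illumina sequencing of inputs and outputs, genotypes needed ≥10 input reads and ≥1 read per output. Fitness is the base-2 logarithm of genotype enrichment over wild-type enrichment, using inverse-variance-weighted replicate averages.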

In order of rising “polymerase ribozyme fitness (log ratio)” value:
1. C53A C99A G117C A118G  -7.29
2. C53U C64G C73U A90C U112G  -7.28
3. C56A C73U C97U A103U G120C  -7.26
4. C53G G60U G65U C104U  -7.04
5. U54G G71A G120C  -6.71
6. C53U G93A A105C G117U  -6.56
7. U54A C79A G93U C114U G117A  -6.48
8. U54G C101G C115G U116A  -6.37
9. C53U C62G C70U G110A  -6.1
10. U55C C82G A91C A105U C123G  -6.04
11. C53A C76A C88A U92A  -5.92
12. C53U G69A A91U G110A G113U G128U  -5.88
13. C53A G69C G77U U96A G117A  -5.87
14. U54C G61U G71U C82U A83U C114U  -5.85
15. C53U A103U U116C G117U A118C  -5.82
16. U55A G77A A111U C114U  -5.73
17. C56A G63A A91C  -5.68
18. U54G G71U C79A  -5.67
19. U54C C79A C98U C101A  -5.66
20. U54C G71C A91U U116C  -5.63
21. C53U C80A U131A  -5.6
22. C56A G69A C101U G110A  -5.53
23. C53U A105C G120C G122A U129A  -5.42
24. C53G G60U C104A C114U  -5.11
25. U55A C62U C85A A100U C102U  -5.11
26. U54G G60C U112A G117C  -5
27. U55C C56U G69C C85U  -4.97
28. C53U C102U C114A  -4.76
29. U54C A103G  -4.75
30. C53G C97A G113A  -4.75
31. U54C C79G U125C  -4.66
32. C53G C94A C115G G128C  -4.56
33. U54C C94G C99U  -4.42
34. C56A G63U G77C C115G  -4.37
35. C53A G61A U78G C79A U81G C85A  -4.32
36. C56A G107A A121C  -4.32
37. C53G A68G U87G  -4.16
38. U55G C82U A100U G113U  -4.11
39. C56A C70U U92G  -4.08
40. C56A G61A U92C  -4.04
41. U55C C62G G128U  -4.02
42. U54C C94A G113U  -3.83
43. C53A C72U C86U G110C  -3.78
44. C56A G107A  -3.75
45. C56A U92A  -3.75
46. C53U G60U C80U G93C C97U C101U U133A  -3.62
47. C53U G57C U78C C114A C123U  -3.58
48. C53A G60A G69C  -3.47
49. C53G G61U G77U C101G G120C  -3.46
50. U54G G60U  -3.4
51. C53A C79A G128A  -3.36
52. U54G G93A A111U  -3.35
53. C56A G60A G69C  -3.21
54. U54A C70G C86U  -3.2
55. C53G C73A A105C  -3.2
56. C53G C70U U125C  -3.18
57. C53A C85A G117A U125G  -3.17
58. U54C G122A G128U  -3.12
59. C53U U92G  -2.82
60. U54A C70U G113U C114G A121C  -2.74
61. C53G C89U C115U  -2.67
62. U55A U59C U78G C82A G110A  -2.6
63. C53A G71C C86A C124A  -2.54
64. U55A C85A U112G  -2.37
65. U55G C70G  -2.34
66. U55G C56U C88G  -2.34
67. U55C A91U C94A  -2.3
68. U54A G113A C123U  -2.23
69. C56A G93U  -2.21
70. C53G U125A  -2.2
71. C53A C72U C104U G113C  -2.1
72. C53U A90U C101A  -2.09
73. C53U C79A C85U C88U  -2.08
74. C53U A91U  -2.05
75. U54A C88G  -1.9
76. U55C U106G  -1.88
77. C53U C86G C115U  -1.83
78. C53A U116G  -1.78
79. C53U C85U  -1.78
80. C53A G63U  -1.77
81. C53U G113C  -1.77
82. U55G C56A A83G  -1.72
83. C56A G113C  -1.7
84. U54C G77U C79A C88U  -1.68
85. C53U U59C U96A  -1.65
86. C53U U81A  -1.63
87. C53U U81C C88A  -1.58
88. C56A A90C  -1.57
89. U54A U55A G61A A74G  -1.53
90. C56A C72U C82U C85U  -1.52
91. U55C G61A C104A  -1.51
92. C53U C62G  -1.49
93. C53G G127U  -1.46
94. C53U U78G C79A  -1.4
95. C56A C97U  -1.33
96. C53U G61A C82A C86G U133A  -1.32
97. U55C U59G C114U  -1.28
98. U55A C73U A83G  -1.24
99. U54A C72U C97U  -1.24
100. C53G A119U G127C  -1.2
101. C56A C88G A118U  -1.12
102. U54A G69C  -1.12
103. U54A C115U  -1.11
104. C53A G110U  -1.02
105. U54G A75U C89U  -0.98
106. C53A G61C U78C C85U G93A  -0.976
107. U55A G63A U78A  -0.969
108. U54A C64U A95C  -0.888
109. C56A A83G A84C G135C  -0.872
110. U54G C80U U133A  -0.863
111. C53G G71C C72U  -0.79
112. C56A C64U  -0.751
113. U54A G57U U78A A95U G120U  -0.728
114. C53G G58A C115A  -0.718
115. U54A G69U  -0.707
116. C53A C73A U78G G110U  -0.702
117. C53G U59G C94G  -0.648
118. C53A G63A  -0.638
119. U54A A95U  -0.632
120. U54A U81A  -0.628
121. U54A C56U  -0.589
122. U54A G60C  -0.566
123. C56A A118G  -0.557
124. U55C  -0.521
125. U55C A66U A75U  -0.518
126. C53U U59C  -0.508
127. C56A G58C  -0.496
128. C53G C73U  -0.493
129. U54A G127C  -0.488
130. C53G U106A  -0.474
131. U54C G60U U133G  -0.398
132. U55C C88U  -0.394
133. U54A G61A C124A G128U  -0.356
134. U55C C123A  -0.354
135. U55G A100C  -0.346
136. U55G U78A  -0.34
137. U54C C70U  -0.253
138. C53U G71U  -0.192
139. U55A U133A  -0.185
140. C53U C73U  -0.178
141. C53U C73A  -0.168
142. C53U G71C  -0.133
143. U55A  -0.12
144. U55A C62U C72U G120A  -0.106
145. C53A C86U  -0.0407
146. C53U U112G  -0.00138
147. U55G  0.0266
148. C56A G60U  0.0473
149. U55C G69U A90G U112C A119U  0.0646
150. U54A U96C  0.104
151. U54A C101U G120A  0.15
152. U55C G57U A66C  0.353
153. U55C C73A C76G A121U  0.355
154. C53A C88U C101A  0.356
155. C53U C56G C101A A121C G135C  0.621
156. U55A C88U  0.678
157. U55C G57U A66C C123G U132A  0.759
158. C53G C62U C72A C124U  0.806
159. C53A G60A A121U  1.33
160. C53U C82A A121C  1.33
161. U54C C98U A121U  1.37
162. C53U G57U A121C  1.4
163. C53A C86A C124A  1.52
164. C53U C124G  1.61
165. U54C G57C U112C  1.77
166. C53A C94U C104U U112C  1.78
167. C53U C124U  1.92
